Here are results for 22 sequences from the DeepSol protein solubility set.

A short description of this data set: soluble on expression in E. coli; label from the status in PepcDB or PDB records.
Turning to “MMKKKWYIVLTMSGYEEKVKENIEKKVEATGIKNLVGRIVIPEEVVLDATSPSERLILSPKAKLHVNNGKDVNKGDLIAEEPPIYARRSGVIVDVKNVRKIVVETIDRKYTKTYYIPESAGIEPGLRVGTKVKQGLPLSKNEEYICELDGKIVEIERMKKVVVQTPDGEQDVYYIPLDVFDRDRIKKGKEVKQGEMLAEARKFFAKVSGRVEVVDYSTRKEIRIYKTKRRKLFPGYVFVEMIMNDEAYNFVRSVPYVMGFVSSGGQPVPVKDREMRPILRLAGLEEYEEKKKPVKVELGFKVGDMVKIISGPFEDFAGVIKEIDPERQELKVNVTIFGRETPVVLHVSEVEKIE”, the “soluble on expression in E. coli” value is recorded as “soluble”.
In the case of “MMKLRIEIDGNLEETEIVIKTPTLTDEIADLQRLLQESKAPRLTFYKGTGEYYLDLSEILFFETEGSKIYAHNQKEAYEVRLKLYELESILPRYFNRVSKSTIANIRQIYSVDKSFSGTGTISFYQTHKEVHVSRHYQSLLKENLRNMR” it was “not soluble”; in that of “MMKSIILIVLDGLGDRPGSDLQNRTPLQAAFRPNLNWLASHGINGIMHPISPGIRCGSDTSHMSLLGYDPKVYYPGRGPFEALGLGMDIRPGDLAFRANFATNRDGVIVDRRAGRENKGNEELADAISLDMGEYSFRVKSGVEHRAALVVSGPDLSDMIGDSDPHREGLPPEKIRPTDPSGDRTAEVMNAYLEEARRILSDHRVNKERVKNGRLPGNELLVRSAGKVPAIPSFTEKNRMKGACVVGSPWLKGLCRLLRMDVFDVPGATGTVGSNYRGKIEKAVDLTSSHDFVLVNIKATDVAGHDGNYPLKRDVIEDIDRAMEPLKSIGDHAVICVTGDHSTPCSFKDHSGDPVPIVFYTDGVMNDGVHLFDELSSASGSLRITSYNVMDILMQLAGRSDKFGSLEHHHHHH”, “soluble”.
As for “MMKTLSSGNCTLSVPAKNSYRMVVLGASRVGKSSIVSRFLNGRFEDQYTPTIEDFHRKVYNIRGDMYQLDILDTSGNHPFPAMRRLSILTGDVFILVFSLDNRESFDEVKRLQKQILEVKSCLKNKTKEAAELPMVICGNKNDHGELCRQVPTTEAELLVSGDENCAYFEVSAKKNTNVDEMFYVLFSMAKLPHEMSPALHRKISVQYGDAFHPRPFCMRRVKEMDAYGMVSPFARRPSVNSDLKYIKAKVLREGQARERDKCTIQLEHHHHHH”, the “soluble on expression in E. coli” value is reported as “soluble”.
Take “MMNADCKTAFGAIEESLLWSAEQRAASLAATLACRPDEGPVWIFGYGSLMWNPALEFTESCTGTLVGWHRAFCLRLTAGRGTAHQPGRMLALKEGGRTTGVAYRLPEETLEQELTLLWKREMITGCYLPTWCQLDLDDGRTVNAIVFIMDPRHPEYESDTRAQVIAPLIAAASGPLGTNAQYLFSLEQELIKLGMQDDGLNDLLVSVKKLLAENYPDGVLRPGFALEHHHHHH”: the “soluble on expression in E. coli” value is “soluble”.
As for “MMNYNTPKVSIVVPSLNSISYIRECIDSILNQTLKDIEILCIDANSTDGTLEVLKNYEKKDKRLRVIISDKKSYGYQMNLGIKEAKGEYLGIVESDDYIKTNMYERLYEIAKKNDCEVVKGDFYIFAYGKTEYVNVLRNSCEDIYNYKVNWNKDIRIFLGSDGINPIGIYRLDLLRTNQIKLNETPGASYQDNGLWFQIFALAKSIYFINEAFYMLRRDNPNSSVKSKEKVYCACEEYDFIRDFLKKHPDLEKTLAPICALHRFGNYMFTLERIDERYKLDFLKRFSQDFRKILKDKELDENLFGNINMQRINKIIENPVIYYYFSRGARARLQNQLVYRLGKVVVEAKSFNKIIKLPFLMLKICLEHNFEHKVYRSIVQFRPDLKLLPLECYLDYHEALVIKEHLSYKFGKLILLSFKGWYKGKIFILPFMLKKRYKEYKNKMILEHHHHHH”, the entry is “not soluble”.
Consider “MMRNSHTIENFERMPDGETSSLPDITNYQESVDENPVEECSAYSDTIATCSMCLQVAPHSQFFACTYPGCGYALKQKESVKSPTLFYRKERVLCGACAFLGDHAHHKAYLLKADKLAFLTASREIGGKLEMDMEEVCRLDKSHPVDNAMIIKSGGHVELEKISVVSFLSQAKTIEEWHSRHCMVNEMLSTIKYNREQGIDYLRKQSEKVMTLLNNAAQEIKSVSRTLPKQLTNQDKPHTSFGRRQHASQKNTEWANEEYSPFSSTCSESSTSTLHMAKALQSVDDEVTGGFGGFGFGFGASAVNKSLKGQIKSENYTSIAVTRLYKMLIRTEPKETALRRAADYLNELTHSKTEKKAVIEYMEKKHSIKWPEHII”, for which the “soluble on expression in E. coli” value is “not soluble”.
In the case of “MMRWIRHMFAPSAHRSFPPRSMDSIAAAIAASEQLHTGQVMVAVEADLSAAALWRGHGARQRAEQAFAQLRTWDTEANNGVLIYLLLADHAIEVVADRGLRALVPDAAWAEVCRRMQQFLRDGQHEAAVLAGVEAVTELLCAHFPAAAQAQHEDELPNRPHILGLEHHHHHH”, the “soluble on expression in E. coli” value was “soluble”.
As for “MMTKYGVVGTGYFGAELARFMSKVEGAKITAIYDPVNAAPIAKELNCVATATMEALCSHPDVDCVIIASPNYLHKAPVIAAAKAGKHVFCEKPIALNYQDCKDMVDACKEAGVTFMAGHVMNFFHGVRHAKALIKAGEIGEVTQVHTKRNGFEDVQDEISWKKIRAKSGGHLYHHIHELDCTLFIMDETPSLVSMAAGNVAHKGEKFGDEDDVVLITLEFESGRFATLQWGSSFHYPEHYVLIEGTTGAILIDMQNTAGYLIKAGKKTHFLVHESQAEDDDRRNGNISSEMDGAIAYGKPGKRTPMWLSSIMKLEMQYLHDVINGLEPGEEFAKLLTGEAATNAIATADAATLSSNEGRKVKLTEILGLEHHHHHH”, the entry is “soluble”.
As for “MMYFISDTHFYHENIINLNPEVRFKGFEIVILTNLLKVLKPEDTLYHLGDFTWHFNDKNEYLRIWKALPGRKILVMGNHDKDKESLKEYFDEIYDFYKIIEHKGKRILLSHYPAKDPITERYPDRQEMVREIYFKENCDLLIHGHVHWNREGIKCACKDYRIECINANVEWNDYKPISEREIDKLISYEKAKN”, the entry is “soluble”; as for “MNAFNPTQFRAQFPALADAGVYLDSAATALKPQAVIDATHQFYCLSAGNVHRSQFAQAQRLTAQYEAARAKAARLLNAPDEKSIVWTRGTTEAINMVAQCYARPRLRPGDEIIVSVAEHHANLVPWLMVAQQTGAQVIKLPLNDRRLPDVERLPELITSRSRILALGQMSNVTGGCPDLASAISAAHAAGMVVMVDGAQGAVHFPADVQQLDIDFYAFSAHKLYGPTGIGVLYGKPELLEAMSPWLGGGKMIRDVSFEGFTTQSAPWKLEAGTPNVAGVIGLSAALEWLSDIDIEQAENWSRGLATLAEDALAKRPGFRSFRCQDSSLLAFDFVGVHHGDMVTLLAEYGIALRAGQHCAQPLLAELGVTGTLRASFAPYNTQHDVDALVNAVDRALELLVD”, “not soluble”; as for “MNAIADVQSSRDLRNLPINQVGIKDLRFPITLKTAEGTQSTVARLTMTVYLPAEQKGTHMSRFVALMEQHTEVLDFAQLHRLTAEMVALLDSRAGKISVSFPFFRKKTAPVSGIRSLLDYDVSLTGEMKDGAYGHSMKVMIPVTSLCPCSKEISQYGAHNQRSHVTVSLTSDAEVGIEEVIDYVETQASCQLYGLLKRPDEKYVTEKAYENPKFVEDMVRDVATSLIADKRIKSFVVESENFESIHNHSAYAYIAYP”, “soluble”.
For “MNALEPLFARLARSTFRSRFRLGIKERQYCWDKGAEVIDKHAADFIAQRLAPAHPANDGKQTPMRGHPVFIAQHATATCCRGCLAKWHQIPQGEPLSEAQQQYIVSVIHYWLVIQMNQR”, the “soluble on expression in E. coli” value is “not soluble”.
As to “MNALKQAVRTYARCHANRDGLAVTTVPGLRTMCVEDPAGDLHSVYRPLVCFVLQGAKRMIVGSEERVFYGGQSVIVAADMPVVGRIVEASSGAPYLAIAVELEMALLREVAAQIGDTCSLRSSGMQTLFAEDTEGAMLDCASRLMHLLDRPDAVPILRPGIMRELHYWLLSGPHGPALRTLADPDSYAGRLAAAIAILRTEYRSRVPVERLAAAAAMSLTAFHKHFKMMTSLTPGQYQKRLRLIEARRLMLDQGFSASNAAFEVGYESVSQFTREYGRLFNMPPKQDALRARAISSIFKHSQADALGAELH”, the “soluble on expression in E. coli” value was “not soluble”.
Regarding “MNCVCGSGKTYDDCCGPLLARTRSAASPEALMRSRYAAYALKDFDYIVETTDPERRDLFDHDVNRAWMEESDFLELRVLGSSEKGSRGTVEFIARFRRGGGPEQSHHERSQFRKARGRWYFSEGEAVD”, the “soluble on expression in E. coli” value is recorded as “soluble”.
Take “MNDDLCYKLNYLARLILSKVNEKIKPHGVTQGQLPVLCCLHDAEGQTQAELCKNIQVEQPTMANTLRRMERDGLIFRTASDKDKRQSRVYITERTRPTVEALQEKRDEVVAAMVRHMSPEDLATFTRLLDVATKALENPETE”: the “soluble on expression in E. coli” value was “not soluble”.
As to “MNDIPVQHNKNRCPSHPGDLLAEIIPATGKTKLEIAQMLGISRQHLYAILRAKKPISPSVSARLGKLFGDGAAVWLRMQAAYDAWHAEHETDVSQIPTLHVV”, the “soluble on expression in E. coli” value is recorded as “not soluble”.
As for “MNDPADTLRATLADLVDGLPPRQAARAVERLIANYRGDTPTDAPILRDRADVVAYAAYRMPATFAAVRSALTAFAEAVPDWVPGSHLDVGGGTGAATWAVSDTWGGTRPVTVLDWAEPALVLGQEIAASLPALREARWRRSRIGAALDIESVELVTVSYVLNELTGSDRAALVDAAAGAARAVVIVEAGTPAGYARVVEARDRLIAAGFRVAAPCPHSAACPIEAGTDWCHFAARVSRSSLHRQVKSGSLAYEDEKFSYVAATRLPVEPAASRVVRRPQIRKGQVLLDLCASDERLRRSTVTKRHGDLYKAARDAAWGDPWPPGEDLEHHHHHH”, the “soluble on expression in E. coli” value is reported as “soluble”.
For “MNDVQQAINSDDIPLTDELVVSYLQDNPEFFNRNNSLMTGLRLNDEQRGTVSLVERQQQQLRQKVYGLEDEITQLMSVANHNEQLFVLYSDLYLRLLDCQSAEELLDCLHQATTELLSLSSFKLWLVSGNNTEVAHHSLSTNDCAGVMQNRLTNDEYYFGRLQESEQTLIFSKPCLGSVVLIKLTHDEQAVGFLAIGSEDAHHFDPRMDTLLLNQFKRLVAKLLHQQLSMLEHHHHHH”, the “soluble on expression in E. coli” value is “soluble”.
On to “MNEDVIVDRQYSHGAALTIRAFWAADEESRAAIAKASGLRWVPSSADQPGEQHWPYTEIFQRQMQMELGPDTETRLRIHQPSQLWVRAPSLGEGWLAVPLYPHPLRGQRI”, for which the “soluble on expression in E. coli” value was “not soluble”.
As for “MNEKIEQAIREMGFKNFTEVQSKTIPLMLQGKNVVVRAKTGSGKTAAYAIPILELGMKSLVVTPTRELTRQVASHIRDIGRYMDTKVAEVYGGMPYKAQINRVRNADIVVATPGRLLDLWSKGVIDLSSFEIVIIDEADLMFEMGFIDDIKIILAQTSNRKITGLFSATIPEEIRKVVKDFITNYEEIEACIGLANVEHKFVHVKDDWRSKVQALRENKDKGVIVFVRTRNRVAKLVRLFDNAIELRGDLPQSVRNRNIDAFREGEYDMLITTDVASRGLDIPLVEKVINFDAPQDLRTYIHRIGRTGRMGRKGEAITFILNEYWLEKEVKKVSQKA”, the entry is “soluble”; as for “MNEKQKRFADEYIMNGCNGKKAAISAGYSKKTAESLASRLLRNVNVSEYIKERLEQIQEERLMSITEALALSASIARGEPQEAYSKKYDHLNDEVEKEVTYTITPTFEERQRSIDHILKVYGAYIDKKEITQKNIEINIGEYDDESLEHHHHHH”, “soluble”.
